According to the supplement of paper PMC10567573:
± gives the standard deviation.

Assay: protein stability index of a GFP-peptide fusion (GPS, HEK-293T) (PSI 1-6); higher = more stable
[1] = treatment: DMSO, c terminus: a fixed tail appended
[2] = treatment: MLN4924 1 uM, 8 h, c terminus: a fixed tail appended
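Further: 24-mer peptide tiles fused after GFP, lentivirally expressed, FACS-sorted into six equal bins by GFP/DsRed ratio, decoded by Illumina sequencing, PSI is the read-weighted mean bin number.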

Sequence FLRQLRASHLGNELEGTEELCCVA [C2CD2L] has a protein stability index [1] of 2.98 ± 0.1 and a protein stability index [2] of 3.19 ± 0.3.

Work on VRHEGTRTLWSGLPATLVMTVPAT [SLC25A39] yielded a protein stability index [1] of 2.33 ± 0.18 and a protein stability index [2] of 2.27 ± 0.13.

KVESGAWIGYEHTSFCGQQFILER [CRYBA1] gave a protein stability index [1] of 2.18 ± 0.26 and a protein stability index [2] of 2.18 ± 0.19.

For VLNEEGICTQKCALNWTDIPVAME [VPS39], the protein stability index [1] was 3.43 ± 0.18 and the protein stability index [2] was 3.39 ± 0.28.

Sequence LLWAKFTNSDTPTSFNHMDSDKLS [TOR1AIP2] has a protein stability index [1] of 2.45 ± 0.3 and a protein stability index [2] of 2.54 ± 0.35.

Sequence RVQVLKNEVRRGSPVLLGWVEQAY [TIAF1] has a protein stability index [1] of 2.37 ± 0.18 and a protein stability index [2] of 2.21 ± 0.37.

VEECQAALQNKDTYEPFCKVPVIT [KCTD10] showed a protein stability index [1] of 4.06 ± 0.15 and a protein stability index [2] of 4.12 ± 0.3.

GSSDSEEERATRLAELQEQLKAVH [BRD3] showed a protein stability index [1] of 5.13 ± 0.23 and a protein stability index [2] of 5.15 ± 0.27.

With EKAFIAHFQDNLHSVNRDLNELER [MED27] the protein stability index [1] was 3.85 ± 0.23 and the protein stability index [2] was 4.09 ± 0.2.

KLNKPPETLITTIDSSSSWWTNWV [CYB5A] gave a protein stability index [1] of 2.64 ± 0.23 and a protein stability index [2] of 2.47 ± 0.35.

Work on GMEGLLGTLVQLLGSDDINVVTCA [CTNNB1] yielded a protein stability index [1] of 2.34 ± 0.55 and a protein stability index [2] of 2.46 ± 0.15.

For ALARDLLSETADPFFVLNSDVICD [GMPPB], the protein stability index [1] was 3.07 ± 0.069 and the protein stability index [2] was 3.32 ± 0.26.

Sequence LCATDFKFAMYPPSMIATGSVGAA [CCND2] has a protein stability index [1] of 2.38 ± 0.23 and a protein stability index [2] of 2.38 ± 0.29.

With RGNLSILAAVLVEPKLHTPMYFFL [OR3A1] the protein stability index [1] was 2.86 ± 0.46 and the protein stability index [2] was 3.06 ± 0.57.

Work on DKVGLITLSDWAAAVESVLHLGLP [PPEF2] yielded a protein stability index [1] of 2.5 ± 0.25 and a protein stability index [2] of 2.31 ± 0.64.

In the case of LEAIRKQDLVELYLTNCEKLSAKS [ZER1], the protein stability index [1] is reported as 3.06 ± 0.21 and the protein stability index [2] is reported as 3.11 ± 0.36.

With TDIDLQTIDNDIVSMEIFFKAWLH [M1AP] the protein stability index [1] was 2.39 ± 0.33 and the protein stability index [2] was 2.34 ± 0.45.

For LKFDMKYMNFRVKACNKAVAGEFS [FSD1], the protein stability index [1] was 2.34 ± 0.26 and the protein stability index [2] was 2.17 ± 0.2.

With GLSQVLLRGGGQVLLGWTLHYFPF [POMT2] the protein stability index [1] was 2.95 ± 0.26 and the protein stability index [2] was 2.97 ± 0.64.

For MAFFLCLGLALGAVFSFLFRAIV [SLC29A1], the protein stability index (treatment: DMSO, c terminus: native) was 4.33 ± 0.19 and the protein stability index (treatment: MLN4924 1 uM, 8 h, c terminus: native) was 4.14 ± 0.24.

Work on ASSASEPQGLFVEALSVPLSLCVS [CLPTM1] yielded a protein stability index [1] of 2.31 ± 0.2 and a protein stability index [2] of 2.25 ± 0.36.

In the case of TIQKGSYTFVPWLLSFKRGSALEE [TNFSF13B], the protein stability index [1] is reported as 2.11 ± 0.15 and the protein stability index [2] is reported as 2.04 ± 0.22.

QDSFEAAGNSTSGSRAGASSFSDP [KCNA3] showed a protein stability index [1] of 5.42 ± 0.31 and a protein stability index [2] of 5.35 ± 0.16.

With DIDVQLSSELTDSLRTLKPEGNIL [NOP53] the protein stability index [1] was 4.1 ± 0.29 and the protein stability index [2] was 4.06 ± 0.36.

IPLEQGSSCNGPGQTTGHPYYLRS [FAN1] gave a protein stability index [1] of 5.05 ± 0.38 and a protein stability index [2] of 5 ± 0.18.

With RQHHHQSSFPGSLPQETNLTLKVC the protein stability index [1] was 2.89 ± 0.48 and the protein stability index [2] was 3.34 ± 0.56.

Sequence GLQSYQQALLRISLDKVQRSLGPR [SERTAD3] has a protein stability index [1] of 2.43 ± 0.27 and a protein stability index [2] of 2.26 ± 0.36.

For LEVDHIRTIYHMFIALLILFILST [SOAT1], the protein stability index [1] was 2.58 ± 0.39 and the protein stability index [2] was 2.43 ± 0.41.

In the case of GLGELGAALLQLVRRLQALRLERE [ESRRA], the protein stability index [1] is reported as 2.66 ± 0.21 and the protein stability index [2] is reported as 2.54 ± 0.14.

With VDNSCDWALGVCNNSWIRKNSTMV [TRIM43] the protein stability index [1] was 2.49 ± 0.34 and the protein stability index [2] was 2.5 ± 0.44.

In the case of PARDYSQYYRTIEELQNKILTATV [KRT17], the protein stability index [1] is reported as 2.28 ± 0.2 and the protein stability index [2] is reported as 2.34 ± 0.21.

With GEGRKSRKFSRLSCLRRRRHPPKV [SMG5] the protein stability index [1] was 3.69 ± 0.37 and the protein stability index [2] was 3.82 ± 0.28.

TAIKSIEFARKGSCFLINTADRII [RBBP5] gave a protein stability index [1] of 2.6 ± 0.22 and a protein stability index [2] of 2.75 ± 0.78.

For MAMAVMLYYSNFVLALEERFGVRP [MFSD9], the protein stability index [1] was 3.3 ± 0.47 and the protein stability index [2] was 3.41 ± 0.49.

EAGFHTVEAVAYAPKKELINIKGI [RAD51] gave a protein stability index [1] of 3.01 ± 0.054 and a protein stability index [2] of 3.19 ± 0.29.

EPSNKTIHAELSKLVKKHAAQRST [FKBP8] gave a protein stability index [1] of 4.49 ± 0.21 and a protein stability index [2] of 4.47 ± 0.3.

In the case of AFQNDVYEWARDHRAHHKFSETHA [SCD], the protein stability index [1] is reported as 2.65 ± 0.22 and the protein stability index [2] is reported as 2.69 ± 0.33.

IQFKKHEEEGIETQYFAELLMTSG [CNOT7] showed a protein stability index [1] of 2.82 ± 0.21 and a protein stability index [2] of 2.82 ± 0.35.

In the case of LRNLSDAATKQEGMEGLLGTLVQL [CTNNB1], the protein stability index [1] is reported as 3.51 ± 0.16 and the protein stability index [2] is reported as 3.03 ± 0.65.

With MNDFGIKNMDQVAPVANSYRGTLK [ETS2] the protein stability index [1] was 4.06 ± 0.31 and the protein stability index [2] was 4.02 ± 0.26.

Work on EDEDEDKEEEEEDCSEEYLERQLQ [TAF7L] yielded a protein stability index [1] of 5.636 ± 0.049 and a protein stability index [2] of 5.76 ± 0.18.

For AALCALGKDCFLELAPDFVGDILW [ETS1], the protein stability index [1] was 2.51 ± 0.41 and the protein stability index [2] was 2.95 ± 0.77.

Sequence YAGNLHESGVHGALLALDENFDHN [PPFIA4] has a protein stability index [1] of 3.26 ± 0.51 and a protein stability index [2] of 3.7 ± 0.73.

In the case of LDCEGTTNKMKSPETKQRKLSPLR [KMT2E], the protein stability index [1] is reported as 5.39 ± 0.22 and the protein stability index [2] is reported as 5.05 ± 0.37.

Work on VLLHGPPGTGKTSLCKALAQKLTI [TRIP13] yielded a protein stability index [1] of 2.58 ± 0.6 and a protein stability index [2] of 2.31 ± 0.53.

STVISSMPCLLMELRRDSSESQLA [C18orf25] gave a protein stability index [1] of 3.02 ± 0.13 and a protein stability index [2] of 3.13 ± 0.33.

In the case of HVKETQPPETVQNWIELLSGETWN [GOLPH3], the protein stability index [1] is reported as 3.67 ± 0.36 and the protein stability index [2] is reported as 3.86 ± 0.41.

In the case of RTPLIKLSPKKTWEGFIGGFFSTV [CDS1], the protein stability index [1] is reported as 2.03 ± 0.16 and the protein stability index [2] is reported as 1.88 ± 0.37.

Sequence PFIVTLEGNALQGPILQKDYVQLE [ZNF449] has a protein stability index [1] of 2.46 ± 0.18 and a protein stability index [2] of 2.59 ± 0.31.

With DGIRGKVGHARGLHAWQINWPARQ [SPSB4] the protein stability index [1] was 2.8 ± 0.19 and the protein stability index [2] was 2.67 ± 0.31.

WKEGRPRVEESGSKKEGKRQGPKE [PBXIP1] gave a protein stability index [1] of 5.28 ± 0.46 and a protein stability index [2] of 5.24 ± 0.12.

AAQEGEDEGASAGQGPKPEADSQE [GAGE1] showed a protein stability index [1] of 5.67 ± 0.17 and a protein stability index [2] of 5.64 ± 0.24.

SFQGCMAQLFMDHLFAGAEVILLV [OR4A15] gave a protein stability index [1] of 3.28 ± 1.2 and a protein stability index [2] of 3.18 ± 0.91.

Work on GWCIFVYNLSPEADESVLWQLFGP [ELAVL3] yielded a protein stability index [1] of 2.8 ± 1.4 and a protein stability index [2] of 3.7 ± 1.2.

In the case of TPVPTITANVTSVPVPPAAAPPPP [BRD3], the protein stability index [1] is reported as 4.92 ± 0.17 and the protein stability index [2] is reported as 5.04 ± 0.17.

Work on KKNGLYLSLVLGNVNVTLLSKQAK [TMEM120A] yielded a protein stability index [1] of 2.51 ± 0.64 and a protein stability index [2] of 2.57 ± 0.35.

Sequence SSCYPLIPSTPEEVSADDETPNPP [MAGEA10] has a protein stability index [1] of 5.46 ± 0.31 and a protein stability index [2] of 5.44 ± 0.27.

In the case of PKKSAPSAVARSNSWMGSQGPMSQ [RBMY1A1], the protein stability index [1] is reported as 4.08 ± 0.13 and the protein stability index [2] is reported as 4.28 ± 0.2.

GPDGQEMDPPNPEEVKTPEEEMRS [GAGE1] showed a protein stability index [1] of 5.7 ± 0.3 and a protein stability index [2] of 5.38 ± 0.42.

Sequence SDDSDEDEPCAISGKWTFQRDSKR [DLC1] has a protein stability index [1] of 5 ± 0.13 and a protein stability index [2] of 4.83 ± 0.069.

With PPPDVTQLTPPSHDLTDNIFPRLV [ANKRD17] the protein stability index [1] was 4.04 ± 0.34 and the protein stability index [2] was 4.06 ± 0.16.

LEGYRDNAYKDLAWKHGNIHLSAP [PCMTD1] showed a protein stability index [1] of 2.99 ± 0.35 and a protein stability index [2] of 2.94 ± 0.21.

For NQIMPKTGFLIIILAIIAKEGDCA [MAGEA6], the protein stability index [1] was 2.98 ± 0.45 and the protein stability index [2] was 2.47 ± 0.61.

Sequence MGPKTLPQLAGKWQVLCMLSLCCW [PCDHGC5] has a protein stability index [1] of 3.21 ± 0.49 and a protein stability index [2] of 3.17 ± 0.76.

Work on RSLQDLARIAIRGTIKKIIHQETV [PCMTD2] yielded a protein stability index [1] of 2.39 ± 0.32 and a protein stability index [2] of 2.52 ± 0.65.
